The text below walks through data of US20090317396A1 (AJOU UNIVERSITY INDUSTRY ACADEMIC COOPERATION FOUNDATION, published 2009).

The target of assay [1] is T1, death decoy receptor 1 (DcR1) (UniProt O14798 26-221, limits assumed).
T1 sequence (looked up): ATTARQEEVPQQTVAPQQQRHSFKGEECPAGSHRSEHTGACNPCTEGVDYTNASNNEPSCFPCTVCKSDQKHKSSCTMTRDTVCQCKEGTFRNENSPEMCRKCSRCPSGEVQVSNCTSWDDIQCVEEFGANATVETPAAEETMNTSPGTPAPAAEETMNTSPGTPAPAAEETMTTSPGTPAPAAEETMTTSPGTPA
As to the kind of experiment: SPR (Biacore 2000): DcR1 immobilised on a CM5 chip, HW1 injected.
Method: (§1) The binding affinity of the anti-DR5 scFv antibody to DR5, and the cross-reactivities of the antibody with other antigens, DcR1, DcR2, DR4, TNFR1, TNFR2 and CD95 were determined by Biacore 2000 SPR (surface plasmon resonance) biosensor (Pharmacia, Sweden), respectively.

Assay [2] addresses T2, CD95 (UniProt P25445 26-173).
T2 sequence (looked up): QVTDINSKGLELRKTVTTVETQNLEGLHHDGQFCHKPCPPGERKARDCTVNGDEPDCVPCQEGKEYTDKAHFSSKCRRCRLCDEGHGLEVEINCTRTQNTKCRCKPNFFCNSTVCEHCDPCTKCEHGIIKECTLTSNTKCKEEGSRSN
As to the kind of experiment: SPR (Biacore 2000): CD95 immobilised on a CM5 chip, HW1 injected.
Method: as §1

For assay [3], the target named is T3, TNFR1 (UniProt P19438 30-211, limits assumed).
T3 sequence (looked up): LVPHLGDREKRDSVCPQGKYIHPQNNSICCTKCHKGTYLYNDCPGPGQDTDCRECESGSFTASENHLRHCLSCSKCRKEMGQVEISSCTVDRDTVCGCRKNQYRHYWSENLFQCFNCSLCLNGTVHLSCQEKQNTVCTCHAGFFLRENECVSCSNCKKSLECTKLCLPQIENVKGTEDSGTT
As to the kind of experiment: SPR (Biacore 2000): TNFR1 immobilised on a CM5 chip, HW1 injected.
Method: as §1

For another assay, the target named is T4, DcR2 (UniProt Q9UBN6 56-211).
T4 construct: also called death decoy receptor 2
T4 sequence (looked up): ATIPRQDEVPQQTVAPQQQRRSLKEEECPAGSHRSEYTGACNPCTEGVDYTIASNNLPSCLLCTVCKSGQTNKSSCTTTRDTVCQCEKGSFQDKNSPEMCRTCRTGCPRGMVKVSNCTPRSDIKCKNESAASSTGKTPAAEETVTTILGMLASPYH
As to the kind of experiment: SPR (Biacore 2000), antigen immobilised on CM5 chip. A general note: Surface plasmon resonance follows binding to a sensor surface in real time, without labels.

In a further assay the target is T5, TNFR2 (UniProt P20333 23-257).
T5 sequence (looked up): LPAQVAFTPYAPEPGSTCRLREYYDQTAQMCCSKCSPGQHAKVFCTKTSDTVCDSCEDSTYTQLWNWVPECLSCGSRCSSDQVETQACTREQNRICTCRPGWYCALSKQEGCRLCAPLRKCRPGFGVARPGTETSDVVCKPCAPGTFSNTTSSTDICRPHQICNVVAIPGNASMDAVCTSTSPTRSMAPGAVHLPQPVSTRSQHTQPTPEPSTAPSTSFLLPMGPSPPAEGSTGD
Described as above.

Assay [4] concerns the target T6, death receptor 4 (DR4) (UniProt O00220 24-239, limits assumed).
T6 construct: also called TRAIL receptor 1
The assay is described as above.
Method: as §1

A further assay deals with T7, death receptor 5 (DR5) (UniProt O14763 52-182, limits assumed).
T7 construct: Purified antigen immobilised on CM5 chip or coated on ELISA plates; also called TRAIL receptor 2; TRICK2
T7 sequence (O14763 52-182 limits assumed): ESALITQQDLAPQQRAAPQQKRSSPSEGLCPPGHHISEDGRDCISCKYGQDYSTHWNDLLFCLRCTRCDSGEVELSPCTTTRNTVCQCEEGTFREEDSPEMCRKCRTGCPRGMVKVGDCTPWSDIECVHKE
As to the kind of experiment: SPR (Biacore 2000), DR5 immobilised on CM5 chip, scFv injected, 25° C.

For assay [5], the target named is T3, TNFR1. As to the kind of experiment: SPR (Biacore 2000): TNFR1 immobilised on a CM5 chip, HW6 injected.
Method: as §1
Assay [6] concerns the target T6, death receptor 4 (DR4). Nature of the assay: SPR (Biacore 2000): DR4 immobilised on a CM5 chip, HW6 injected.
Method: as §1
For assay [7], the target named is T1, death decoy receptor 1 (DcR1). As to the kind of experiment: SPR (Biacore 2000): DcR1 immobilised on a CM5 chip, HW6 injected.
Method: as §1
In assay [8] the target is T2, CD95. As to the kind of experiment: SPR (Biacore 2000): CD95 immobilised on a CM5 chip, HW6 injected.
Method: as §1

T6 sequence (O00220 24-239 limits assumed): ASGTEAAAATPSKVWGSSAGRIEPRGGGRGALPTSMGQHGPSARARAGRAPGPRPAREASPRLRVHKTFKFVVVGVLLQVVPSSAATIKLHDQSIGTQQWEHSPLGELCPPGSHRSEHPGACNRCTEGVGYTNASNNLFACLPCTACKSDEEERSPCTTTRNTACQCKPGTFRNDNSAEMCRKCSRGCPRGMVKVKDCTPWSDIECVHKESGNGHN
Method for DcR2: as §1
Method for TNFR2: as §1
Method for death receptor 5 (DR5): as §1

B1: HW1 anti-DR5 scFv antibody (scFv)
scFv: QVQLQQSGPGLVKPSQTLSLTCAISGDSVSSTTVAWDWIRQSPSRGLEWLGRTYYRSKWYNEYAVSVKSRITINVDTSKNQISLQLNSVTPEDTAVYYCAREPDAGRGAFDIWGQGTTVTSPLRWGRFGWRGLGRGWLRSPVTQSPGTLSLSPGERATLSCRASQSVSSSHLAWYQQKPGQAPRLLIYGASSRATGIPDRFSGSGSGTDFTLTISSLEPEDFAVYYCQQRSNWPPRAVFGQGTRLEIK
notes: Human scFv expressed in E. coli periplasm (PelB signal removed on export), purified, monomeric; not shown: C-terminal Flag tag from vector pKJ1; C-terminal 6xHis tag from vector pKJ1
What is called Kd is the constant that tells how readily two partners part at equilibrium. What is called koff is the rate constant with which the complex falls apart. For orientation: kon means a measure of how fast the partners come together. Low values mean slower complex formation, high ones faster complex formation. B1: the binding result in [1] is reported as “no binding”; with CD95 [2] it was “no binding”; with TNFR1 [3], “no binding”; with DcR2 it was “no binding (tested: up to 10 µM)”; with TNFR2, “no binding (tested: up to 10 µM)”; with death receptor 4 (DR4) [4], “no binding (tested: up to 10 µM)”. This molecule also had a Kd in the assay with death receptor 5 (DR5) of 202 nM. Further, the koff in the assay with death receptor 5 (DR5) was found to be 0.00471 s⁻¹. The molecule also had a kon with death receptor 5 (DR5) of 23300 M⁻¹ s⁻¹.

B2: HW6 anti-DR5 scFv antibody (scFv)
scFv: QVQLQQSGPGRVQPSQTLSLTCAISGDSVSNNNAAWYWIRQSPSRGLEWLGRTYYRSKWYNDYAVSVKSRITISPDTSKNQFSLQLNSVTPEDTAVYYCARRGDGNSYFDYWGQGTLVTVSSGILRWGRFGWRGLGRGWLEIVLTQSPGTLSLSPGERATLSCRASQSVSSGYVSWYRQKPGQAPRLLIYGASTRATGIPDRFSGSGSGTDFTLTISRLEPEDFAVYYCHQYGSSPNTYGQGTKVGIK
notes: Human scFv expressed in E. coli periplasm, purified, monomeric; not shown: C-terminal Flag tag from vector pKJ1; C-terminal 6xHis tag from vector pKJ1
On to B2, for which the binding result with TNFR1 [5] is given as “no binding”; with death receptor 4 (DR4) [6], “no binding”; in the assay with DcR2, “no binding (tested: up to 10 µM)”; with TNFR2, “no binding (tested: up to 10 µM)”; in assay [7] it was “no binding”; with CD95 [8] it was “no binding”. The molecule further gave a Kd with death receptor 5 (DR5) of 54.5 nM. In the assay with death receptor 5 (DR5), this molecule returned a koff of 0.00688 s⁻¹. Also, the kon with death receptor 5 (DR5) was 126000 M⁻¹ s⁻¹.
